Experimental findings from article PMC6441084 are described below.

The test deals with microtubules (MTs) polymerised from purified tubulin (Cytoskeleton, # T240) (UniProt P02550).

Take “Diaph2 mutant lacking the FH2-domain (ΔFH2-Diaph2), GST-fusion protein (from UniProt O60879 1-1101) (natural protein)”: the MT-polymerization (turbidity at 340 nm, no taxol; 2 µM tubulin, 0.2 µM Diaph2 protein), fold against the control is 6 fold.
